What follows are binders tested against T1, EsCas13d, nuclease-dead (Eubacterium siraeum, UniProt B0MS50, R295A;H300A;R849A;H854A) (assay: crRNA (strand 1, pre-loaded); Mg2+; 40 mM Tris-HCl pH 7.5, 150 mM NaCl, 6 mM MgCl2, 1 mM DTT, 0.1% Tween-20, 0.2 mg/ml BSA; 25 C; 10 min per concentration, then washed). Settings: tags: His6-TwinStrep-SUMO cleaved; N-terminal SNAP kept (SNAP-Surface 488); label: 3' end held by stalled T7 RNA polymerase.
T1 sequence: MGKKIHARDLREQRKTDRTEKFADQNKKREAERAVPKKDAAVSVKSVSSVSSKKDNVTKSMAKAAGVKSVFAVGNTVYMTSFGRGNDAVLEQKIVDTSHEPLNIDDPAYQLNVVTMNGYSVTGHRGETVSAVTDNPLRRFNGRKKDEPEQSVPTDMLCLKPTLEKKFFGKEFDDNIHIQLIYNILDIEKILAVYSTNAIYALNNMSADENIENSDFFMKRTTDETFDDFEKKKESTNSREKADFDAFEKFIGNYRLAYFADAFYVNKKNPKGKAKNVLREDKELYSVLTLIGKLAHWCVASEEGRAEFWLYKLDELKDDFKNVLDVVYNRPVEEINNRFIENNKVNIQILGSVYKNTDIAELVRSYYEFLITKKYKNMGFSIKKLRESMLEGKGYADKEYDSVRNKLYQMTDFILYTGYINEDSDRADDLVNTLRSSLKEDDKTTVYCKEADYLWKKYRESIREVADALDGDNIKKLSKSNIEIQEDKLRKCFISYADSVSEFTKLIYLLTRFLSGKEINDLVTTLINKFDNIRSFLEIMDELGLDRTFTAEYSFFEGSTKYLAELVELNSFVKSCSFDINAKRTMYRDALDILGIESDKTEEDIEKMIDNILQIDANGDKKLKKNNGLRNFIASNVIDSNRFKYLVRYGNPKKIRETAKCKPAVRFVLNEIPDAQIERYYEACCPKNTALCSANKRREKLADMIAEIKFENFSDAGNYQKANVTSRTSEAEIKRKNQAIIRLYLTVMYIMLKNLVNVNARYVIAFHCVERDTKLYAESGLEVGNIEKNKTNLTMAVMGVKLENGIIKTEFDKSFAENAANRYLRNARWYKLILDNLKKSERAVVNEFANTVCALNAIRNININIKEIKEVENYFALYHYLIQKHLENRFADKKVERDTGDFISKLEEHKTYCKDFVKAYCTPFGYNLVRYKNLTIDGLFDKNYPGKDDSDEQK

Binder	Kd
target 1 MT 5'PFS UGG 3'PFS UAA (mixed) RNA 1: CACCCGUGCAAAAAUGCAGGGGUCUAAAACUGAGCGGAUAACCUCUCUAUGG RNA 2: GGGAAUGGAUCCACAUCUACGAAUUCUGGCCAUAGAGAGGUUAUCCGCUCAUAAAGAUCGGAAGAGCACACGU	79.5 ± 27.5 nM
target 1 MT 5'PFS GAC 3'PFS CUU (mixed) RNA 1: CACCCGUGCAAAAAUGCAGGGGUCUAAAACUGAGCGGAUAACCUCUCUAUGG RNA 2: GGGAAUGGAUCCACAUCUACGAAUUCGACCCAUAGAGAGGUUAUCCGCUCACUUAGAUCGGAAGAGCACACGU	12.1 ± 3.65 nM
target 1 MT 5'PFS GUU 3'PFS CCG (mixed) RNA 1: CACCCGUGCAAAAAUGCAGGGGUCUAAAACUGAGCGGAUAACCUCUCUAUGG RNA 2: GGGAAUGGAUCCACAUCUACGAAUUCGUUCCAUAGAGAGGUUAUCCGCUCACCGAGAUCGGAAGAGCACACGU	11.2 ± 1.55 nM
target 1 MT 5'PFS GUU 3'PFS CCA (mixed) RNA 1: CACCCGUGCAAAAAUGCAGGGGUCUAAAACUGAGCGGAUAACCUCUCUAUGG RNA 2: GGGAAUGGAUCCACAUCUACGAAUUCGUUCCAUAGAGAGGUUAUCCGCUCACCAAGAUCGGAAGAGCACACGU	34 ± 8 nM
target 1 C7G,C21A (mixed) RNA 1: CACCCGUGCAAAAAUGCAGGGGUCUAAAACUGAGCGGAUAACCUCUCUAUGG RNA 2: GGGAAUGGAUCCACAUCUACGAAUUCGUACAAUAGAGAGGUUAUGCGCUCACCGAGAUCGGAAGAGCACACGU	30 ± 2.3 nM
target 1 MT 5'PFS GUU 3'PFS CCC (mixed) RNA 1: CACCCGUGCAAAAAUGCAGGGGUCUAAAACUGAGCGGAUAACCUCUCUAUGG RNA 2: GGGAAUGGAUCCACAUCUACGAAUUCGUUCCAUAGAGAGGUUAUCCGCUCACCCAGAUCGGAAGAGCACACGU	26.5 ± 8.5 nM
target 1 MT 5'PFS GAC 3'PFS CUA (mixed) RNA 1: CACCCGUGCAAAAAUGCAGGGGUCUAAAACUGAGCGGAUAACCUCUCUAUGG RNA 2: GGGAAUGGAUCCACAUCUACGAAUUCGACCCAUAGAGAGGUUAUCCGCUCACUAAGAUCGGAAGAGCACACGU	15.5 ± 5 nM
target 1 MT 5'PFS GAC 3'PFS CUC (mixed) RNA 1: CACCCGUGCAAAAAUGCAGGGGUCUAAAACUGAGCGGAUAACCUCUCUAUGG RNA 2: GGGAAUGGAUCCACAUCUACGAAUUCGACCCAUAGAGAGGUUAUCCGCUCACUCAGAUCGGAAGAGCACACGU	24 ± 10 nM
target 1 MT 5'PFS GAC 3'PFS CUG (mixed) RNA 1: CACCCGUGCAAAAAUGCAGGGGUCUAAAACUGAGCGGAUAACCUCUCUAUGG RNA 2: GGGAAUGGAUCCACAUCUACGAAUUCGACCCAUAGAGAGGUUAUCCGCUCACUGAGAUCGGAAGAGCACACGU	19 ± 6.5 nM
target 1 MT 5'PFS CCG 3'PFS AUU (mixed) RNA 1: CACCCGUGCAAAAAUGCAGGGGUCUAAAACUGAGCGGAUAACCUCUCUAUGG RNA 2: GGGAAUGGAUCCACAUCUACGAAUUCCCGCCAUAGAGAGGUUAUCCGCUCAAUUAGAUCGGAAGAGCACACGU	3.75 ± 1.75 nM
target 1 MT 5'PFS GUU 3'PFS CCU (mixed) RNA 1: CACCCGUGCAAAAAUGCAGGGGUCUAAAACUGAGCGGAUAACCUCUCUAUGG RNA 2: GGGAAUGGAUCCACAUCUACGAAUUCGUUCCAUAGAGAGGUUAUCCGCUCACCUAGAUCGGAAGAGCACACGU	11.6 ± 1.9 nM
target 1 MT 5'PFS GCA 3'PFS ACA (mixed) RNA 1: CACCCGUGCAAAAAUGCAGGGGUCUAAAACUGAGCGGAUAACCUCUCUAUGG RNA 2: GGGAAUGGAUCCACAUCUACGAAUUCGCACCAUAGAGAGGUUAUCCGCUCAACAAGAUCGGAAGAGCACACGU	25.5 ± 4.5 nM
target 1 MT 5'PFS UAA 3'PFS AAU (mixed) RNA 1: CACCCGUGCAAAAAUGCAGGGGUCUAAAACUGAGCGGAUAACCUCUCUAUGG RNA 2: GGGAAUGGAUCCACAUCUACGAAUUCUAACCAUAGAGAGGUUAUCCGCUCAAAUAGAUCGGAAGAGCACACGU	55 ± 16 nM
target 1 MT 5'PFS GCU 3'PFS CGU (mixed) RNA 1: CACCCGUGCAAAAAUGCAGGGGUCUAAAACUGAGCGGAUAACCUCUCUAUGG RNA 2: GGGAAUGGAUCCACAUCUACGAAUUCGCUCCAUAGAGAGGUUAUCCGCUCACGUAGAUCGGAAGAGCACACGU	33.5 ± 8 nM
target 1 MT 5'PFS UAA 3'PFS AAC (mixed) RNA 1: CACCCGUGCAAAAAUGCAGGGGUCUAAAACUGAGCGGAUAACCUCUCUAUGG RNA 2: GGGAAUGGAUCCACAUCUACGAAUUCUAACCAUAGAGAGGUUAUCCGCUCAAACAGAUCGGAAGAGCACACGU	40 ± 11 nM
target 1 U11C,C21U (mixed) RNA 1: CACCCGUGCAAAAAUGCAGGGGUCUAAAACUGAGCGGAUAACCUCUCUAUGG RNA 2: GGGAAUGGAUCCACAUCUACGAAUUCGUACUAUAGAGAGGCUAUCCGCUCACCGAGAUCGGAAGAGCACACGU	9.9 ± 0.4 nM
target 1 MT 5'PFS UAA 3'PFS AAA (mixed) RNA 1: CACCCGUGCAAAAAUGCAGGGGUCUAAAACUGAGCGGAUAACCUCUCUAUGG RNA 2: GGGAAUGGAUCCACAUCUACGAAUUCUAACCAUAGAGAGGUUAUCCGCUCAAAAAGAUCGGAAGAGCACACGU	47 ± 15.5 nM
target 1 MT 5'PFS UAA 3'PFS AAG (mixed) RNA 1: CACCCGUGCAAAAAUGCAGGGGUCUAAAACUGAGCGGAUAACCUCUCUAUGG RNA 2: GGGAAUGGAUCCACAUCUACGAAUUCUAACCAUAGAGAGGUUAUCCGCUCAAAGAGAUCGGAAGAGCACACGU	66 ± 26 nM
target 1 MT 5'PFS GCA 3'PFS UUC (mixed) RNA 1: CACCCGUGCAAAAAUGCAGGGGUCUAAAACUGAGCGGAUAACCUCUCUAUGG RNA 2: GGGAAUGGAUCCACAUCUACGAAUUCGCACCAUAGAGAGGUUAUCCGCUCAUUCAGAUCGGAAGAGCACACGU	9.95 ± 1.2 nM
target 1 MT 5'PFS GCU 3'PFS CGC (mixed) RNA 1: CACCCGUGCAAAAAUGCAGGGGUCUAAAACUGAGCGGAUAACCUCUCUAUGG RNA 2: GGGAAUGGAUCCACAUCUACGAAUUCGCUCCAUAGAGAGGUUAUCCGCUCACGCAGAUCGGAAGAGCACACGU	42.5 ± 15 nM
target 1 MT 5'PFS GCU 3'PFS CGA (mixed) RNA 1: CACCCGUGCAAAAAUGCAGGGGUCUAAAACUGAGCGGAUAACCUCUCUAUGG RNA 2: GGGAAUGGAUCCACAUCUACGAAUUCGCUCCAUAGAGAGGUUAUCCGCUCACGAAGAUCGGAAGAGCACACGU	49.5 ± 17 nM
target 1 MT 5'PFS GCA 3'PFS UUA (mixed) RNA 1: CACCCGUGCAAAAAUGCAGGGGUCUAAAACUGAGCGGAUAACCUCUCUAUGG RNA 2: GGGAAUGGAUCCACAUCUACGAAUUCGCACCAUAGAGAGGUUAUCCGCUCAUUAAGAUCGGAAGAGCACACGU	7.65 ± 1.2 nM
target 1 MT 5'PFS GUC 3'PFS UAU (mixed) RNA 1: CACCCGUGCAAAAAUGCAGGGGUCUAAAACUGAGCGGAUAACCUCUCUAUGG RNA 2: GGGAAUGGAUCCACAUCUACGAAUUCGUCCCAUAGAGAGGUUAUCCGCUCAUAUAGAUCGGAAGAGCACACGU	16.1 ± 3.3 nM
target 1 MT 5'PFS AUG 3'PFS CGG (mixed) RNA 1: CACCCGUGCAAAAAUGCAGGGGUCUAAAACUGAGCGGAUAACCUCUCUAUGG RNA 2: GGGAAUGGAUCCACAUCUACGAAUUCAUGCCAUAGAGAGGUUAUCCGCUCACGGAGAUCGGAAGAGCACACGU	47.5 ± 22.5 nM
